Patent publication US20210230304A1 (SYSMEX, published 2021)

What was measured:
[1] = molecular target: T1, HER2 protein (R&D Systems, Inc., Catalog No. 1129-ER) (UniProt P04626 23-652); assay: SPR, Biacore T200; reference is the wild-type anti-HER2 antibody
T1 construct: Bought reagent
Method: (§1) The affinity of the prepared variants was measured using Biacore (registered trademark) T200 (GE Healthcare). […] Antigen was immobilized (immobilization: 50 RU) to a sensor chip for Biacore (registered trademark) Series S Sensor Chip CMS (GE Healthcare). The antibody solution was diluted to prepare antibody solutions of 30 nM, 15 nM, 7.5 nM, 3.75 nM and […]. The antibody solutions at each concentration were delivered to Biacore (registered trademark) T200 (GE Healthcare) (association time of 120 seconds and dissociation time of 1800 seconds). Measurement data was analyzed using Biacore (registered trademark) Evaluation software, and the data on the affinity of each antibody was obtained.
(§2) In the measurement, TSH protein (R&D Systems, Inc.) was used as an antigen of the anti-TSH antibody, and HER2 protein (R&D Systems, Inc., Catalog No. 1129-ER) was used as an antigen of the anti-HER2 antibody.

[2] = molecular target: T1, HER2 protein (R&D Systems, Inc., …); assay: SPR, Biacore T200; antigen immobilised, antibody as analyte
Method: as §1, §2

Ratio (Kd against wild-type = 1) [1]: 2.71
Kd [2]: 21.9 pM
B1: 76, 77, 81 variant (Arg) of the humanized anti-HER2 antibody (antibody, V domains shown)
VH: not shown
VL: DIQMTQSPSSLSASVGDRVTITCRASQDVNTAVAWYQQKPGKAPKLLIYSASFLYSGVPSRFSGSRSGTDFTLTIRRLQPRDFATYYCQQHYTTPPTFGQGTKVEIKR
